Numbering of substitutions follows the chain as printed. Names may count otherwise.
B1: VHH-72(S57G) (VHH)
VHH: QVQLQESGGGLVQAGGSLRLSCAASGRTFSEYAMGWFRQAPGKEREFVATISWSGGGTYYTDSVKGRFTISRDNAKNTVYLQMNSLKPDDTAVYYCAAAGLGTVVSEWDYDYDYWGQGTQVTVSS
B2: VHH-72(S57T) (VHH)
VHH: B1 VHH with G57T
B3: VHH-72 variant expressing both S57A and D61A (VHH)
VHH: B1 VHH with G57A, D62A
B4: VHH-72(S57S) (VHH)
VHH: B1 VHH with G57S
B5: VHH-72 (S57A, Y60T) (VHH)
VHH: B1 VHH with G57A, Y60T
B6: VHH-72 (S57Y) (VHH)
VHH: B1 VHH with G57Y
B7: VHH-72(D61A) (VHH)
VHH: B1 VHH with G57S, D62A
B8: VHH-72 (S57A, Y60H) (VHH)
VHH: B1 VHH with G57A, Y60H
B9: VHH-72 (S57A) (VHH)
VHH: B1 VHH with G57A

Experiments:
[1] = biological target: T1, SARS-CoV-2 RBD (SinoBiological, Cat. No. 40592-V02H) (SARS-CoV-2, UniProt P0DTC2 319-541); assay: ELISA on SARS-CoV-2 RBD
T1 construct: domain: RBD

[2] = biological target: T1, SARS-CoV-2 RBD (SinoBiological, Cat. …); assay: ELISA, relative EC50
[3] = biological target: T1, SARS-CoV-2 RBD (SinoBiological, Cat. …); assay: ELISA on RBD
[4] = biological target: T1, SARS-CoV-2 RBD (SinoBiological, Cat. …); assay: ELISA on RBD, compared with wildtype VHH-72
[5] = biological target: T1, SARS-CoV-2 RBD (SinoBiological, Cat. …)

Binder	Rel. EC50 - ELISA [1]	EC50 [3] [µg/mL]	also measured
B1	0.09 relative to WT		
B2			binding result [2]: no binding
B3		0.012	fold improved binding compared to the wildtype VHH-72 [4]: > 160 fold
B4	1 relative to WT		
B5		0.024	fold further-increased apparent RBD affinity [5]: ~3.5 fold
B6	0.28 relative to WT		fold increased apparent affinity [4]: ~4 fold
B7		0.51	fold increased RBD binding [4]: 4 fold
B8		0.029	fold further-increased apparent RBD affinity [5]: ~3.5 fold
B9	0.05 relative to WT	0.09	fold increase in RBD affinity [4]: 22 fold

Source: US20240059759A1 (BIGHAT BIOSCIENCES, published 2024)
